Experimental data reported in the supplement of paper PMC10567573.
± gives the standard deviation.

Assay: protein stability index of a GFP-peptide fusion (GPS, HEK-293T) (PSI 1-6); higher = more stable
Settings: c terminus: a fixed tail appended
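Also: 24-mer peptide tiles fused after GFP, lentivirally expressed, FACS-sorted into six equal bins by GFP/DsRed ratio, decoded by Illumina sequencing, PSI is the read-weighted mean bin number.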

Sequence	protein stability index (treatment: DMSO)	protein stability index (treatment: MLN4924 1 uM, 8 h)
HFPHLLSPQIQRSAHRALYRRHVL [TMEM175]	2.69 ± 0.26	2.85 ± 0.15
HGSGSHPGPASGPGPDTGPDSELS [SPAG8]	5.41 ± 0.25	5.37 ± 0.36
HHPENGEETVTMLEDVERELDGPK [ZNF396]	5.51 ± 0.13	5.49 ± 0.15
HIGNSTQATVRDAVVGRPSMDKKA [ATL3]	3.97 ± 0.21	4.49 ± 0.6
HKARTRPKARKQGVSPADMYRWKL [ADAMTSL2]	3.32 ± 0.25	3.31 ± 0.42
HLRATEKMKTRELHRESSNFDSIY [HDAC6]	3.18 ± 0.43	3.46 ± 0.2
HLVQHQRIHSGEKPYECNECGKAF [ZNF232]	3.65 ± 0.21	3.8 ± 0.098
HNGDMEKILLDAQHESGQSSSRGS [BNIP3L]	5.18 ± 0.17	5.32 ± 0.3
HPFFDTAEPDMDDPAYIAVLVLIF [INTS4]	2.61 ± 0.57	2.66 ± 0.62
HPFYHCLVAEVPKEHWTPEGHSIV [SAT1]	2.76 ± 0.33	2.54 ± 0.25
HPTPFLAFLRRVKTCNPPDAGPMV [PTPRD]	2.37 ± 0.12	2.26 ± 0.18
HQADLEVANRHGHTCLMISCYKGH [FEM1A]	2.73 ± 0.33	2.69 ± 0.45
HQMGVVHRDLKPENLLLASKLKGA [CAMK2A]	3.73 ± 0.21	3.82 ± 0.12
HQPKGLEEENAQLRGALQQGEAFQ [PBXIP1]	5.07 ± 0.24	5.05 ± 0.12
HQVTVNESLLAPLNVELDPEIQKV [KRT71]	4.73 ± 0.2	4.45 ± 0.15
HRRIHTGEKPYECQDCGRAFNQNS [ZNF8]	3.75 ± 0.53	4.1 ± 0.27
HSDPEESFARDLPDFPSINMDPAG [RETREG3]	5.19 ± 0.25	5.22 ± 0.16
HSVLVDDDGIKVVKVTFNKQDSLV [TMEM106C]	3.09 ± 0.27	3.18 ± 0.36
HTDMTNKQNKTPLDKSTTGVSEIL [FEM1B]	4.85 ± 0.49	5.05 ± 0.25
HTEASAQRSHMGKLKEPQPQDHKP	5.24 ± 0.71	5.24 ± 0.33
HTGLKPYECGVCAKKFMWRDSFMR [ZBTB22]	2.65 ± 0.52	2.44 ± 0.6
HVAGEQMLEDGPHNANRGQRLLAF [CCDC70]	4.07 ± 0.25	4.04 ± 0.24

Sequence	protein stability index (treatment: DMSO)	protein stability index (treatment: MLN4924 1 uM, 8 h)
HVEVARLLLENGAGINTHSNEFKE [ANKRD17]	3.69 ± 0.39	3.39 ± 0.22
HVKEQLPCAGLNCQALDANLDANL [TLE6]	4.42 ± 0.19	4.64 ± 0.24
IAAAVYIMDTVGNIWVCYASYVVF [SLC19A2]	2.89 ± 0.13	2.87 ± 0.27
IASEWFLIANRSYKVSAASSFFFS [SLC22A15]	3.03 ± 0.19	2.94 ± 0.42
IAVAWIYGTKKFMQELTEMLGFRP [SLC6A17]	2.62 ± 0.78	2.1 ± 0.61
ICKSDAPTGDVLLDEALKHVKETQ [GOLPH3]	4.64 ± 0.3	4.72 ± 0.16
IEREHLIQLRRWQETRGELQCRSP [TBC1D10A]	3.88 ± 0.2	3.82 ± 0.24
IFPRLSFKDKSTYIESSTKVYDDM [CLPTM1]	3.03 ± 0.23	3.15 ± 0.25
IFSQSSALILHQRIHSGKKPYACD [ZNF396]	2.32 ± 0.097	2.53 ± 0.24
IGDVHLAPFTDEQLYMEQFTKANF [CARM1]	3 ± 0.2	3.03 ± 0.36
IGMSAAGMGLTGTMGMGMPNIAMT [CLINT1]	2.62 ± 0.079	2.56 ± 0.13
IGSSSEKEIDDVIDEIISLESSYN [TFE3]	4.37 ± 0.25	4.4 ± 0.22
IHGENIICEATQIIDYLEQTFLDE [GDAP1]	2.82 ± 0.22	3.12 ± 0.21
IHPKSIDLDNYFTARRLLSQVRAL [NFE2L1]	2.25 ± 0.32	2.54 ± 0.18
IHQESGKAPSTDDATWAAVAACTK [C10orf62]	4.56 ± 0.18	4.72 ± 0.32
IIELLEKDGMAFQEALDPGPFDQG [ELF3]	3.58 ± 0.39	3.44 ± 0.32
IIIRSEVPGIFCAGADLKERAKMS [AUH]	2.36 ± 0.43	1.95 ± 0.21
ILFLNKKDLFEEKIKKSPLTICYP [GNAI1]	2.43 ± 0.9	2.21 ± 0.75
ILFLVIGGMLNFMMHDQRTGPAWN [SOAT2]	3.27 ± 0.46	3.26 ± 0.55
ILSGLDDMSIGGNLSKTQNMERFG [CDC14A]	3.24 ± 0.22	3.08 ± 0.26
IMDRFDCQYLMATFVNVYIASFIR [CDS2]	3.423 ± 0.005	3.33 ± 0.31
INYKLKSVAHLPWRMLTYKALNTF [CLPTM1]	2.44 ± 0.65	2.31 ± 0.36

Sequence	protein stability index (treatment: DMSO)	protein stability index (treatment: MLN4924 1 uM, 8 h)
IPDAFWWAVVTMTTVGYGDMKPIT [KCNA4]	3.8 ± 0.42	3.53 ± 0.16
IPGEHFWLLLLTRGLVGVGEASYS [SPNS1]	3.1 ± 0.47	2.37 ± 0.58
IPPAAMLDQAPKARKYFERLPGGG [DYRK1B]	3.72 ± 0.27	3.64 ± 0.061
IQLGVTPPGYSAWIKEEAAERYLY [SLC6A17]	2.31 ± 0.25	2.36 ± 0.15
IRQYRLKKISKEEKTPGCVKIKKC [KRAS]	–	3.31 ± 0.24
ISKGEEPRAGKEESGVSVSNSQPT [SLC29A1]	5.48 ± 0.24	5.52 ± 0.22
ITCVSGAIVDLISRQYDKFLTHFI [FBXO33]	2.85 ± 0.53	3.13 ± 0.44
KAAQQGKQEENDVVEKLNLFLDLL [SNX8]	2.45 ± 0.076	2.64 ± 0.34
KAIKARGEVIHCKLRAMKELSEAA [STX11]	3.32 ± 0.29	3.6 ± 0.2
KALFTCPFNGDCRITKDNRRHCQA [VDR]	2.84 ± 0.31	3.21 ± 0.42
KAMESQRAYRFVQGKDWGFKKFIR [SPOPL]	2.22 ± 0.38	2.09 ± 0.21
KDKLGVWVYKNKLIFFGGYGYLPE [KLHDC2]	2.25 ± 0.59	3.11 ± 1.6
KDLILRFCIDSENRIGNSGVEEIK [STK38L]	2.472 ± 0.02	2.85 ± 0.42
KERALSAPWLSLFPPEGNMEDKEM [ZNF263]	4.82 ± 0.057	4.72 ± 0.18
KEYTTRTQAPPSVILGVTNPFFAK [DENND6A]	2.81 ± 0.24	2.738 ± 0.021
KFDHIEVRDGPFGFSPIIGRFCGQ [NETO1]	2.3 ± 0.28	2.44 ± 0.34
KHGKRKRGRPRKLSKEYWDCLEGK [ELF3]	4.18 ± 0.44	4.38 ± 0.18
KHPQPAPAVTPDPWGVQGGQESEV [PKD2L1]	5.24 ± 0.22	4.97 ± 0.21
KHSTFGQSLTQRLHALKLRSPDAS [GNAS]	3.37 ± 0.29	3.44 ± 0.2
KKEKIIEDKTFGLKNKKGAKQQKF [ZC3H15]	4.5 ± 0.27	4.33 ± 0.19
KKINSNQLENEQSQENSINPIQKE [SPANXN3]	5.66 ± 0.29	5.58 ± 0.26
